In patent US20200109196A1 (MOGAM INSTITUTE FOR BIOMEDICAL RESEARCH, published 2020):

T1: recombinant human CEACAM-6/CD66c protein (R&D systems; Cat. No. 3934-CM) (human, UniProt P40199 35-320)
T1 construct: Bought protein; also called HCCM6
T1 sequence (looked up): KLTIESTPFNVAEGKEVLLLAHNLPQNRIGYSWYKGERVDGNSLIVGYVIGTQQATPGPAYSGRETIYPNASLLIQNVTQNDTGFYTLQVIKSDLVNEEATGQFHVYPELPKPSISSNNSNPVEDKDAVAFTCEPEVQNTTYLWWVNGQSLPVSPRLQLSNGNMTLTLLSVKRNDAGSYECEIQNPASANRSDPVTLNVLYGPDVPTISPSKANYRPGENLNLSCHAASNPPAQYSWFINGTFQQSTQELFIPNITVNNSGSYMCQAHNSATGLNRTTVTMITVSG

T2: mCCM1
T2 construct: also called mouse CCM1; mouse CEACAM1/CD66a protein (Sino Biological); not shown: the vendor's polyhistidine tag
T2 chain: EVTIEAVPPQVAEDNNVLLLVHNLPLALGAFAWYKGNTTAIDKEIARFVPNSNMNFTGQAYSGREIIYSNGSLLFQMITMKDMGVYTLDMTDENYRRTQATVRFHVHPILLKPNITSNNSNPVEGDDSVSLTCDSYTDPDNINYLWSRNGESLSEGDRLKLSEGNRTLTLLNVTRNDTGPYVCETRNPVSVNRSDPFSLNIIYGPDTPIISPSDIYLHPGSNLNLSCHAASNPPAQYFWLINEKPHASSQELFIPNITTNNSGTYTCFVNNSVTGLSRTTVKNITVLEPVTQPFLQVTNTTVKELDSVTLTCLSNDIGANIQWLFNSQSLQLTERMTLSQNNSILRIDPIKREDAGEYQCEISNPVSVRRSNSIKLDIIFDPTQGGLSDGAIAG


What was measured:
[1] = molecular target: T1, recombinant human CEACAM-6/CD66c …; assay: ELISA on coated antigen (0.25 µg/ml), HRP anti-human IgG Fab, OD450
Source text: (§1) All of the recombinant human CEACAM-1/CD66a protein (R&D systems; Cat. No. 2244-CM, HCCM1), recombinant human CEACAM-5/CD66e protein (R&D systems; Cat. No. 4128-CM, HCCM5), recombinant human CEACAM-6/CD66c protein (R&D systems; Cat. No. 3934-CM, HCCM6), recombinant human CEACAM-3/CD66d protein (Sino Biological; Cat. No. 11933-H08H, HCCM3), recombinant mouse PD-1 Fc chimeric protein (R&D systems; Cat. No. 1021-PD, mPD-1-Fc), recombinant CEACAM1-Fc (IgG4) protein (Mogam, in-house production, HCCM1-Fc), recombinant human CEACAM-1/CD66a protein Bulk (R&D systems; Cat. No. 2244-CM, HCCM1 (bulk)) and mouse CEACAM1/CD66a protein (Sino Biological; Cat. No. 50571-M08H, mouse CCM1) (2.5 μg each) were dissolved in 10 ml of PBS, respectively and dispensed into a 96-well plate (Nunc; Cat. No. 467679) at 100 μl/well, which was incubated overnight at 4° C. Thereafter, each well was treated with 300 μl of 1% (v/v) bovine serum albumin, which was incubated at 37° C. for 1 hour.
(§2) The diluted antibodies were dispensed into each well coated with each protein at 100 μl/well, which was incubated at 37° C. for 1 hour. Then, each well was washed 3 times with a washing buffer prepared by diluting 10 μl of Tween 20 (Sigma-Aldrich; Cat. No. P9146) in 990 μl of PBS. Thereafter, 2 μl of HRP-conjugated human anti-IgG-Fab antibody (anti-human IgG Fab; Sigma; Cat. No. A0293) was diluted in 10 ml of PBS, added to the wells at 100 μl/well, and incubated for 1 hour.
(§3) After completion of the reaction, the wells were washed three times with the washing buffer, and 100 μl of TMB solution was added to each well to induce color development. Then, 100 μl of 2 M H₂SO₄ was added to each well to stop the reaction, and the absorbance was measured at a wavelength of 450 nm.

mCCM1 = molecular target: T2, mCCM1; assay: as above
Source text: as §1, §2, §3

BSA = molecular target: T3, BSA (bovine, UniProt P02769); assay: ELISA on coated antigen (0.25 µg/ml), HRP anti-human IgG Fc, OD450
T3 construct: blank antigen; also called BSA protein; bovine serum albumin
T3 sequence (P02769 25-607 limits assumed): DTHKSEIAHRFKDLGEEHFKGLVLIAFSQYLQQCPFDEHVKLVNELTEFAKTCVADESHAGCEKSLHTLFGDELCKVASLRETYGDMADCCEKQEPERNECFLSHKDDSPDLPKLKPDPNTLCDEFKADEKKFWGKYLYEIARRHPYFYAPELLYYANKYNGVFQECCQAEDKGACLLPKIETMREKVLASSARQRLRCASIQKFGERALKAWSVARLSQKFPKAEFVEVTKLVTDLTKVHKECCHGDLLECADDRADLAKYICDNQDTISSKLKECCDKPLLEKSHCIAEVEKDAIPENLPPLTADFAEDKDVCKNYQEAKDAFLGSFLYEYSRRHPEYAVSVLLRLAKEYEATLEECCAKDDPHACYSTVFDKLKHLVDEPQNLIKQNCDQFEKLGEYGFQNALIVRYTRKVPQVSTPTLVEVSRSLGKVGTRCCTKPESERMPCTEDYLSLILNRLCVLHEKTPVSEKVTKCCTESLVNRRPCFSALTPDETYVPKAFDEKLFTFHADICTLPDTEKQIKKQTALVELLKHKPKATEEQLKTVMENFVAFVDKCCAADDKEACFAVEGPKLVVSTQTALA
Source text: (§4) All of the recombinant human CEACAM-1/CD66a protein (R&D systems; Cat No. 2244-CM, HCCM1), recombinant human CEACAM-5/CD66e protein (R&D systems; Cat. No. 4128-CM, HCCM5), recombinant human CEACAM-6/CD66c protein (R&D systems; Cat. No. 3934-CM, HCCM6), recombinant human CEACAM-3/CD66d protein (Sino Biological; Cat. No. 11933-H08H, HCCM3), human B7-H5/Gi24/VISTA protein (Sino Biological; Cat. No. 13482-H08H, HVISTA), recombinant human CEACAM-1/CD66a protein Bulk (R&D systems; Cat. No. 2244-CM, HCCM1 (bulk)), recombinant human CEACAM1-N domain-Kappa protein (Mogam, in-house production, HCCM1-N domain-kappa), and BSA protein (2.5 μg each) were dissolved in 10 ml of PBS, respectively, and dispensed into a 96-well plate at 100 μl/well, which was incubated at 4° C. overnight. Thereafter, each well was treated with 300 μl of 1% (v/v) bovine serum albumin, and incubated at 37° C. for 1 hour.
as §2, with “and” for “which was”, “anti-IgG-Fc” for “anti-IgG-Fab”, “Fc, Sigma” for “Fab; Sigma;”, “A0170)” for “A0293)”
as §3

HVISTA = molecular target: T4, HVISTA; assay: as above
T4 construct: unrelated control antigen; also called human B7-H5/Gi24/VISTA protein (Sino Biological; Cat. No. 13482-H08H); not shown: the vendor's polyhistidine tag
T4 sequence (chain, as listed by the source limits assumed): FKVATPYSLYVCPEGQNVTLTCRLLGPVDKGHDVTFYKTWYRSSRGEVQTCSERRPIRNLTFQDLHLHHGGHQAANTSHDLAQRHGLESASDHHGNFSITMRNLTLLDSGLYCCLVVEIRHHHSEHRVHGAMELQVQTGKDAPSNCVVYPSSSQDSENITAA
Source text: as §4
as §2, with “and” for “which was”, “anti-IgG-Fc” for “anti-IgG-Fab”, “Fc, Sigma” for “Fab; Sigma;”, “A0170)” for “A0293)”
as §3

| Binder | binding result [1] | binding result (mCCM1) | binding result (BSA) | binding result (HVISTA) |
| --- | --- | --- | --- | --- |
| C19 (antibody, human IgG4 S228P, lambda, V domains shown) VH: EVQLLESGGGLVQPGGSLRLSCAASGFTFSGYAMSWVRQAPGKGLEWVSGIYHDGGSTYYADSVKGRFTISRDNSKNTLYLQMNSLRAEDTAVYYCARVTVLCTTYGCSSYDGMDVWGQGTLVTVSS VL: not shown | no binding (tested: 3 µg/ml (single concentration)) | no binding (tested: 3 µg/ml (single concentration)) | no binding (tested: 3 µg/ml (single concentration)) | no binding (tested: 3 µg/ml (single concentration)) |
| C18 (antibody, human IgG4 S228P, lambda, V domains shown) VH: EVQLLESGGGLVQPGGSLRLSCAASGFTFSNYDMSWVRQAPGKGLEWVSGISHSSGSKYYADSVKGRFTISRDNSKNTLYLQMNSLRAEDTAVYYCARDPLPCLIPKCSYYYAMDVWGQGTLVTVSS VL: QSVLTQPPSAPGTPGQRVTISCSGSSSNIGSNAVTWYQQLPGTAPKLLIYADSHRPSGVPDRFSGSKSGTSASLAISGLRSEDEADYYCGSWDDSLNAYVFGGGTKLTVLG | no binding (tested: 3 µg/ml (single concentration)) | no binding (tested: 3 µg/ml (single concentration)) | no binding (tested: 3 µg/ml (single concentration)) | no binding (tested: 3 µg/ml (single concentration)) |
| C26 (antibody, human IgG4 S228P, lambda, V domains shown) VH: EVQLLESGGGLVQPGGSLRLSCAASGFTFSGYDMSWVRQAPGKGLEWVSWISYGGGSIYYADSVKGRFTISRDNSKNTLYLQMNSLRAEDTAVYYCAKDRLPQKAVRHSYANGMDVWGQGTLVTVSS VL: QSVLTQPPSASGTPGQRVTISCSGSSSNIGNNYVTWYQQLPGTAPKLLIYADSHRPSGVPDRFSGSKSGTSASLAISGLRSEDEADYYCGAWDYSLSGYVFGGGTKLTVLG | no binding (tested: 3 µg/ml (single concentration)) | no binding (tested: 3 µg/ml (single concentration)) | no binding (tested: 3 µg/ml (single concentration)) | no binding (tested: 3 µg/ml (single concentration)) |
| C25 (antibody, human IgG4 S228P, lambda, V domains shown, Made in ExpiHEK293F cells, protein A purified. huIgG4 is the isotype control and anti-huIgG4 the detection reagent; the isotype is not otherwise stated; also called anti-CEACAM1 antibody C25) VH: EVQLLESGGGLVQPGGSLRLSCAASGFTFSNYAMSWVRQAPGKGLEWVSVISHGGGSIYYADSVKGRLTISRDNSKNTLYLQMNSLRAEDTAVYYCARDPTKGYAPTFDYWGQGTLVTVSS VL: QSVLTQPPSASGTPGQRVTISCSGSSSNIGNNYVSWYQQLPGTAPKLLIYADSKRPSGVPDRFSGSKSGTSASLAISGLRSEDEADYYCGAWDASLNGYVFGGGTKLTVLG | no binding (tested: 3 µg/ml (single concentration)) | no binding (tested: 3 µg/ml (single concentration)) | no binding (tested: 3 µg/ml (single concentration)) | no binding (tested: 3 µg/ml (single concentration)) |
| C22 (antibody, human IgG4 S228P, lambda, V domains shown) VH: EVQLLESGGGLVQPGGSLRLSCAASGFTFSDYDMSWVRQAPGKGLEWVSMIYSGSSSKYYADSVKGRFTISRDNSKNTLYLQMNSLRAEDTAVYYCAKAPLPFYFRPKSYYYAMDVWGQGTLVTVSS VL: QSVLTQPPSASGTPGQRVTISCSGSSSNIGSNNVTWYQQLPGTAPKLLIYANSHRPSGVPDRFSGSKSGTSASLAISGLRSEDEADYYCGSWDSSLNAYVFGGGTKLTVLG | no binding (tested: 3 µg/ml (single concentration)) | no binding (tested: 3 µg/ml (single concentration)) | no binding (tested: 3 µg/ml (single concentration)) | no binding (tested: 3 µg/ml (single concentration)) |
| C17 (antibody, human IgG4 S228P, lambda, V domains shown) VH: EVQLLESGGGLVQPGGSLRLSCAASGFTFSDYSMSWVRQAPGKGLEWVSVIYPDDGNTYYADSVKGRFTISRDNSKNTLYLQMNSLRAEDTAVYYCARGSIWWLSLIPSSYNAMDVWGQGTLVAVSS VL: QSVLTQPPSASGTPGQRVTISCSGSSSNIGNNAVNWYQQLPGTAPKLLIYANSHRPSGVPDRFSGSKSGTSASLAISGLRSEDEADYYCGAWDASLNGYVFGGGTKLTVLG | no binding (tested: 3 µg/ml (single concentration)) | no binding (tested: 3 µg/ml (single concentration)) | no binding (tested: 3 µg/ml (single concentration)) | no binding (tested: 3 µg/ml (single concentration)) |
| C15 (antibody, human IgG4 S228P, lambda, V domains shown) VH: EVQLLESGGGLVQPGGSLRLSCAASGFTFSSYSMSWVRQAPGKGLEWVSSISPNGGNKYYADSVKGRFTISRDNSKNTLYLQMNSLGAEDTAVYYCAKDPYNIYQPLFDYWGQGTLVTVSS VL: QSVLTQPLSASGTPGQRVTISCSGSSSNIGNNYVNWYQQLPGTAPKLLIYANSNRPSGVPDRFSGSKSGTSASLAISGLRSEEEADYYCGTWDASLSAYVFGGGTKLTVLG | no binding (tested: 3 µg/ml (single concentration)) | no binding (tested: 3 µg/ml (single concentration)) | no binding (tested: 3 µg/ml (single concentration)) | no binding (tested: 3 µg/ml (single concentration)) |
